Numbered stars: 1 amine (or outer) side, 2 acyl side, 3 side chain; on linkers, the order of the positions; unused ones are H or OH. Bridge positions count the residues as written; N and C are the ends. Square brackets hold non-standard residues; d marks the D form. Peptide text beside a SMILES is read from it. I, II: the chains in the order shown. X4 = O=C(O)CN1CCN(CC(=O)O)CC(Cc2ccc(NC(=S)NCCC(=O)N(CCOCCOCCOCCOCCC(=O)[*:1])CCOCCOCCOCCOCCC(=O)[*:2])cc2)N(CC(=O)O)CC1; X3 = CC(C)(C)OC(=O)NCCC(=O)N(CCOCCOCCOCCOCCC(=O)[*:1])CCOCCOCCOCCOCCC(=O)[*:2]; NOTA‑1 = 1,4,7-triazacyclononane-N,N',N''-triacetic acid phenyl thiourea; Pro(cis-4-Ph) = O=C(O)[C@@H]1C[C@H](c2ccccc2)CN1; Trp(5-F) = N[C@@H](Cc1c[nH]c2ccc(F)cc12)C(=O)O; Pro(trans-4-F) = O=C(O)[C@@H]1C[C@@H](F)CN1; Phe(4-F) = N[C@@H](Cc1ccc(F)cc1)C(=O)O; Phe(4-Me) = Cc1ccc(C[C@H](N)C(=O)O)cc1; Tic = O=C(O)[C@@H]1Cc2ccccc2CN1; Pip = O=C(O)[C@@H]1CCCCN1; Aze = O=C(O)[C@@H]1CCN1
B1: Compound 64a (peptide)
peptide: {CH2CO}-FNFEDQS[Tic]DTWQPCG-NH2
modifications: thioether N-14
SMILES: C[C@@H](O)[C@@H]1NC(=O)[C@H](CC(=O)O)NC(=O)[C@@H]2Cc3ccccc3CN2C(=O)[C@H](CO)NC(=O)[C@H](CCC(N)=O)NC(=O)[C@H](CC(=O)O)NC(=O)[C@H](CCC(=O)O)NC(=O)[C@H](Cc2ccccc2)NC(=O)[C@H](CC(N)=O)NC(=O)[C@H](Cc2ccccc2)NC(=O)CSC[C@@H](C(=O)NCC(N)=O)NC(=O)[C@@H]2CCCN2C(=O)[C@H](CCC(N)=O)NC(=O)[C@H](Cc2c[nH]c3ccccc23)NC1=O
B2: Compound 23a (peptide)
peptide: {CH2CO}-FNFEDQSVDTWQPCGGK-NH2
modifications: thioether N-14
SMILES: CC(C)[C@@H]1NC(=O)[C@H](CO)NC(=O)[C@H](CCC(N)=O)NC(=O)[C@H](CC(=O)O)NC(=O)[C@H](CCC(=O)O)NC(=O)[C@H](Cc2ccccc2)NC(=O)[C@H](CC(N)=O)NC(=O)[C@H](Cc2ccccc2)NC(=O)CSC[C@@H](C(=O)NCC(=O)NCC(=O)N[C@@H](CCCCN)C(N)=O)NC(=O)[C@@H]2CCCN2C(=O)[C@H](CCC(N)=O)NC(=O)[C@H](Cc2c[nH]c3ccccc23)NC(=O)[C@H]([C@@H](C)O)NC(=O)[C@H](CC(=O)O)NC1=O
B3: Compound 61a (peptide)
peptide: {CH2CO}-FNFEDQAPDTWQPCGGK-NH2
modifications: thioether N-14
SMILES: C[C@@H]1NC(=O)[C@H](CCC(N)=O)NC(=O)[C@H](CC(=O)O)NC(=O)[C@H](CCC(=O)O)NC(=O)[C@H](Cc2ccccc2)NC(=O)[C@H](CC(N)=O)NC(=O)[C@H](Cc2ccccc2)NC(=O)CSC[C@@H](C(=O)NCC(=O)NCC(=O)N[C@@H](CCCCN)C(N)=O)NC(=O)[C@@H]2CCCN2C(=O)[C@H](CCC(N)=O)NC(=O)[C@H](Cc2c[nH]c3ccccc23)NC(=O)[C@H]([C@@H](C)O)NC(=O)[C@H](CC(=O)O)NC(=O)[C@@H]2CCCN2C1=O
B4: Compound 54a (peptide)
peptide: {CH2CO}-[Phe(4-F)]NFEDQSPDTWQPCG-NH2
modifications: thioether N-14
SMILES: C[C@@H](O)[C@@H]1NC(=O)[C@H](CC(=O)O)NC(=O)[C@@H]2CCCN2C(=O)[C@H](CO)NC(=O)[C@H](CCC(N)=O)NC(=O)[C@H](CC(=O)O)NC(=O)[C@H](CCC(=O)O)NC(=O)[C@H](Cc2ccccc2)NC(=O)[C@H](CC(N)=O)NC(=O)[C@H](Cc2ccc(F)cc2)NC(=O)CSC[C@@H](C(=O)NCC(N)=O)NC(=O)[C@@H]2CCCN2C(=O)[C@H](CCC(N)=O)NC(=O)[C@H](Cc2c[nH]c3ccccc23)NC1=O

molecular target: human Granzyme B (hGranzyme B) (Homo sapiens, UniProt P10144); experiment: Surface plasmon resonance (SPR) binding kinetics to hGranzyme B; conditions: not given
Protocol: The kinetics of test peptide binding to human Granzyme B (hGranzyme B) was determined by SPR. All experiments were performed at 25° C. using the Biacore 8k+ instrument (Cytiva, Marlborough, MA). The Biacore 8k+ Insight Evaluation Software Version 3.0 was used to fit the data with a 1:1 binding model to determine the association rate constant ka (M^−1s^−1, where “M” ~equals molar and “s” ~equals seconds) and the dissociation rate constant kd (s^−1). These rate constants were used to calculate the equilibrium dissociation constant. KD (M)=kd/ka.
To measure the binding kinetics of peptides of interest, surfaces were prepared by a capture method to a Series S Streptavidin (SA) chip using a 1×HBS-EP+ running buffer (Cytiva). hGranzyme B was diluted to 10 μg/mL in IX HBS-EP+ and flowed over spot 2 of each flow cell on the chip at a flow rate of 10 ul/min for 20 s to achieve a level of capture of ~1100 RU. An unmodified spot 1 of each flow cell was used as a matrix binding control or reference surface. Binding kinetics were measured using single cycle kinetics at 25° C. by injecting 5 concentrations with 3-fold serial dilutions of test peptides from 0.01 μM to 1 μM. Compound dilutions were performed manually in a running buffer containing 1×HBS-EP+(Cytiva), and a final concentration of 2% DMSO. The interaction analyses over hGranzyme B, were performed using a 120 s association time and a 900 s dissociation time. All experiments were conducted at a flow rate of 50 μL/min with a data collection rate of 10 Hz.
Peptide dilution series included 2 zero concentration points (no compound) which were averaged and subtracted from the peptide concentration injection as DMSO control responses. Binding data acquired from the reference surface (matrix binding control) were subtracted from the binding data for hGranzyme B surface on the chip to determine specific binding. Next, the association phase data were solvent corrected to account for any signal fluctuation throughout the experiment due to subtle DMSO concentration differences. Corrected response data were analyzed using the Biacore 8k+ Evaluation Software Version 3.0 according to the manufacturer. SPR data for representative compounds of the disclosure are found in Table 8.

Molecule | Kd
C[C@@H]1NC(=O)[C@H](CO)NC(=O)[C@H](CCC(N)=O)NC(=O)[C@H](CC(=O)O)NC(=O)[C@H](CCC(=O)O)NC(=O)[C@H](Cc2ccccc2)NC(=O)[C@H](CC(N)=O)NC(=O)[C@H](Cc2ccccc2)NC(=O)CSC[C@@H](C(=O)NCC(=O)NCC(=O)N[C@H](CCCCNC(=O)CCOCCOCCOCCOCCN(CCOCCOCCOCCOCCC(=O)NCCCC[C@@H](NC(=O)CNC(=O)CNC(=O)[C@@H]2CSCC(=O)N[C@@H](Cc3ccccc3)C(=O)N[C@@H](CC(N)=O)C(=O)N[C@@H](Cc3ccccc3)C(=O)N[C@@H](CCC(=O)O)C(=O)N[C@@H](CC(=O)O)C(=O)N[C@@H](CCC(N)=O)C(=O)N[C@@H](CO)C(=O)N[C@@H](C)C(=O)N[C@@H](CC(=O)O)C(=O)N[C@@H]([C@@H](C)O)C(=O)N[C@@H](Cc3c[nH]c4ccccc34)C(=O)N[C@@H](CCC(N)=O)C(=O)N3CCC[C@H]3C(=O)N2)C(N)=O)C(=O)CCNC(=S)Nc2ccc(CC3CN(CC(=O)O)CCN(CC(=O)O)CCN3CC(=O)O)cc2)C(N)=O)NC(=O)[C@@H]2CCCN2C(=O)[C@H](CCC(N)=O)NC(=O)[C@H](Cc2c[nH]c3ccccc23)NC(=O)[C@H]([C@@H](C)O)NC(=O)[C@H](CC(=O)O)NC1=O (stereo partly drawn) [Compound 8a, (*F.N.F.E.D.Q.S.A.D.T.W.Q.P.*C.G.G.K.NH2)-bis(PEG4)-β-Ala(NOTA-1)-(*F.N.F.E.D.Q.S.A.D.T.W.Q.P.*C.G.G.K.NH2)] (I: {CH2CO}-FNFEDQSADTWQPCGG[dK]-NH2 / II: {CH2CO}-FNFEDQSADTWQPCGG[dK]-NH2; linker I:17-II:17 via X4; thioether I:N-I:14, II:N-II:14) | < 0.1 nM

same assay, conditions: 25° C., 1:1 binding model, KD=kd/ka; read-out: Granzyme B SPR Kd

Kd | Molecule
< 0.1 nM | C[C@@H]1NC(=O)[C@H](CO)NC(=O)[C@H](CCC(N)=O)NC(=O)[C@H](CC(=O)O)NC(=O)[C@H](CCC(=O)O)NC(=O)[C@H](Cc2ccccc2)NC(=O)[C@H](CC(N)=O)NC(=O)[C@H](Cc2ccccc2)NC(=O)CSC[C@@H](C(=O)NCC(=O)NCC(=O)N[C@@H](CCCCNC(=O)CCOCCOCCOCCOCCN(CCOCCOCCOCCOCCC(=O)NCCCC[C@H](NC(=O)CNC(=O)CNC(=O)[C@@H]2CSCC(=O)N[C@@H](Cc3ccccc3)C(=O)N[C@@H](CC(N)=O)C(=O)N[C@@H](Cc3ccccc3)C(=O)N[C@@H](CCC(=O)O)C(=O)N[C@@H](CC(=O)O)C(=O)N[C@@H](CCC(N)=O)C(=O)N[C@@H](CO)C(=O)N[C@@H](C)C(=O)N[C@@H](CC(=O)O)C(=O)N[C@@H]([C@@H](C)O)C(=O)N[C@@H](Cc3c[nH]c4ccccc34)C(=O)N[C@@H](CCC(N)=O)C(=O)N3CCC[C@H]3C(=O)N2)C(N)=O)C(=O)CCNC(=O)OC(C)(C)C)C(N)=O)NC(=O)[C@@H]2CCCN2C(=O)[C@H](CCC(N)=O)NC(=O)[C@H](Cc2c[nH]c3ccccc23)NC(=O)[C@H]([C@@H](C)O)NC(=O)[C@H](CC(=O)O)NC1=O [Compound 7a, (*F.N.F.E.D.Q.S.A.D.T.W.Q.P.*C.G.G.K.NH2)-bis(PEG4)-β-Ala(Boc)-(*F.N.F.E.D.Q.S.A.D.T.W.Q.P.*C.G.G.K.NH2)] (I: {CH2CO}-FNFEDQSADTWQPCGGK-NH2 / II: {CH2CO}-FNFEDQSADTWQPCGGK-NH2; linker I:17-II:17 via X3; thioether I:N-I:14, II:N-II:14)

molecular target: T1, human Granzyme B (human, UniProt P10144 21-247); experiment: SPR, Biacore 8k+, hGranzyme B captured on SA chip, single cycle kinetics, 1:1 model; conditions: not given
T1 construct: Captured on a Series S Streptavidin chip for SPR; also called hGranzyme B; GzmB
T1 sequence (P10144 21-247 limits assumed): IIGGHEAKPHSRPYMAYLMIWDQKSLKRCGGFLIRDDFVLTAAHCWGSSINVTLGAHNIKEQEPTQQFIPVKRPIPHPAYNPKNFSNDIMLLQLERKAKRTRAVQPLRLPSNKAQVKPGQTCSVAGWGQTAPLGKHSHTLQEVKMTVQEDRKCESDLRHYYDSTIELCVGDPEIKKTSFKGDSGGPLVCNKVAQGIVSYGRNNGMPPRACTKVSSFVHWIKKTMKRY

Kd | Molecule
8.1 nM | B1
3.1 nM | {CH2CO}-[Phe(4-Me)]NFEDQSPDTWQPCG-NH2 (thioether N-14) [Compound 43a]
28.3 nM | {CH2CO}-FNFEDQS[Aze]DTWQPCG-NH2 (thioether N-14) [Compound 75a]
4.4 nM | {CH2CO}-FNFEDQSPDTWQPCGGK(NOTA‑1)-NH2 (thioether N-14) [Compound 13a]
19.6 nM | {CH2CO}-FNFEDQSPDTWQ[Pip]CG-NH2 (thioether N-14, also called 71aa) [Compound 71a]
27.5 nM | B2
15.4 nM | {CH2CO}-FNFEDQSADTWQPCGGK-NH2 (thioether N-14, also called 2b) [Compound 26a]
6.3 nM | B3
4.9 nM | B4
4.5 nM | {CH2CO}-FNFEDQSPDTWQ[Pro(trans-4-F)]CG-NH2 (thioether N-14) [Compound 49a]
4.1 nM | {CH2CO}-FNFEDQSPDT[Trp(5-F)]QPCG-NH2 (thioether N-14) [Compound 47a]
28.6 nM | {CH2CO}-FNFEDQS[Pip]DTWQPCG-NH2 (thioether N-14) [Compound 76a]
4.6 nM | {CH2CO}-FNFEDQSPDTWQ[Pro(cis-4-Ph)]CG-NH2 (thioether N-14) [Compound 50a]

Reference: patent publication US20260207798A1, “CYCLIC PEPTIDES AS PET IMAGING AGENTS OF GRANZYME B” (priority 2022, published 2026)
